As a reminder, the stoichiometry N is the number of molecules, sites or subunits per partner or assembly. A word on the Kd: it is the constant that tells how readily two partners part at equilibrium.

The source of these data is PMC5664961.

The target of test [1] is 6xHis-tagged KCTD17 BTB + CTD multi-domain construct (residues G20-Q220), tag kept (human). The experiment in a line: SEC; KCTD17 constructs alone, 6xHis-tagged or tag-cleaved; UV 280 nm traces; various running buffers (pH, salt). On the technique in general: In gel filtration, larger molecules generally elute earlier.
Test [2] addresses human SHKBP1 BTB domain (residues G18-S120) (human) (UniProt Q8TBC3). Kind of test: SEC; KCTD protein alone and mixed with Cul3 NTD at a molar ratio of 1 : 1; UV 280 nm traces; injected at 50 µM; 50 mM HEPES pH 7.5, 150 mM NaCl, 1 mM TCEP.
Test [3] has as its target 6His-KCTD17 BTB domain (residues G20-K131), N-terminal hexahistidine tag kept (human). Kind of test: SAXS; BTB domains alone, ~750 µM monomer; 50 mM HEPES, 150 mM NaCl, 0.5 mM TCEP; curves compared with those calculated from the crystal structures.
The target is the same in test [4]. Kind of test: crystal structure; BTB domains alone, sitting-drop vapour diffusion at 20 and 4°C, data at 100 K.
Test [5] has the same target. The experiment in a line: SEC-MALS; BTB domains alone, injected at 50 µM; Shodex KW-803; 50 mM HEPES pH 7.5, 150 mM NaCl, 1 mM TCEP.
The target is the same in test [6]. The experiment in a line: native MS; 6His-KCTD17 at 2 mg/ml exchanged into 50 mM ammonium acetate pH 6.5; electrospray, Agilent 6530 QTOF.
The target is the same in test [7]. The experiment in a line: crystal structure; BTB domains alone, sitting-drop vapour diffusion at 20 and 4°C, data at 100 K. The source holds these as a separate data set.
For test [8], the target named is KCTD17 BTB + CTD multi-domain construct (residues G20-Q220), tag cleaved (human). Kind of test: SEC; KCTD protein alone and mixed with Cul3 NTD at a molar ratio of 1 : 1; UV 280 nm traces; injected at 50 µM; 50 mM HEPES pH 7.5, 150 mM NaCl, 1 mM TCEP.
For test [9], the target named is human Cul3 N-terminal domain (NTD, residues M1-L388) with the engineered mutations I342R and L346D (human) (UniProt Q13618). The description is as above.
The target in test [10] is T1, KCTD17 BTB domain (residues G20-K131) as used in ITC (human).
T1 sequence (Q8N5Z5 20-131, looked up): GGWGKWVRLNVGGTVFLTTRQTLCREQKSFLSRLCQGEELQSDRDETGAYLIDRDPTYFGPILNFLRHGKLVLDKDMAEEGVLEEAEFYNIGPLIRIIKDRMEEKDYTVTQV
The experiment in a line: ITC; KCTD17 in the cell, titrated with Cul3 NTD from the syringe; 15°C; 50 mM HEPES pH 7.5, 150 mM NaCl, 1 mM TCEP, 5% glycerol; single-binding site model. A general note: In ITC the heat of successive injections is recorded.

The target of test [11] is KCTD17 BTB + CTD multi-domain construct (residues G20-Q220) (human). Kind of test: ITC; KCTD17 in the cell, titrated with Cul3 from the syringe; 15°C; 50 mM HEPES pH 7.5, 150 mM NaCl, 1 mM TCEP, 5% glycerol; single-binding site model.
Test [12] concerns the target T2, KCTD17 BTB domain (residues G20-K131) (human).
T2 sequence (Q8N5Z5 20-131, looked up): T1 sequence (Q8N5Z5 20-131, looked up)
The description is as above.

Chain of human Cul3 N-terminal domain (NTD, residues M1-L388) with the engineered mutations I342R and L346D (human) (Q13618 1-388 I342R/L346D): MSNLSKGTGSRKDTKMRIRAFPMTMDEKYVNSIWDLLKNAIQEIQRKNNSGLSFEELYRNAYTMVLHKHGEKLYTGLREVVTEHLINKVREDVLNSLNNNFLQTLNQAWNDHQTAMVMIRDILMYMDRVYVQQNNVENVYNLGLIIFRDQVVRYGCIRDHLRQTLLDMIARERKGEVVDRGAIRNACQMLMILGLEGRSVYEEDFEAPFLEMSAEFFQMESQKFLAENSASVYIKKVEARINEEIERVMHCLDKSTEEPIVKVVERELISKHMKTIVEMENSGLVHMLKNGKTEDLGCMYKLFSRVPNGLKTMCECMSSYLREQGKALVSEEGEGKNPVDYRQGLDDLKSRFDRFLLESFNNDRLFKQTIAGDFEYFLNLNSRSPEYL

On to “6xHis-tagged KCTD17 BTB + CTD multi-domain construct (residues G20-Q220), tag kept (domain or fragment)”, for which, in [1], the stoichiometry N amounted to 60.
With “human SHKBP1 BTB domain (residues G18-S120) (from UniProt Q8TBC3 18-120) (domain or fragment)”, the stoichiometry N in test [2] was 5.
As for “6His-KCTD17 BTB domain (residues G20-K131), N-terminal hexahistidine tag kept (domain or fragment)”, the stoichiometry N in test [3] was 60; in test [4], 60; in test [5], 60; in test [6], 60; in [7], 5.
As for “KCTD17 BTB + CTD multi-domain construct (residues G20-Q220), tag cleaved (domain or fragment)”, the stoichiometry N in test [8] amounted to 5. Besides, the stoichiometry N (KCTD : Cul3 (5 : 5)) in [9] came out at 1.
As to “human Cul3 N-terminal domain (NTD, residues M1-L388) with the engineered mutations I342R and L346D (from UniProt Q13618 1-388) (domain or fragment)”, the results for the Kd in test [10] and in test [11] were 7 nM and 12 nM, respectively. In addition, the Ka was found to be 8.66e+07 M⁻¹ in test [11] and 1.41e+08 M⁻¹ in test [12]. Further, the stoichiometry N in test [11] was 2.3.
